# Reference: IntAct's records for PubMed 16531226
# B1: Serine/threonine-protein phosphatase 5 (Homo sapiens), P53041 (parent)
# chain: MAMAEGERTECAEPPRDEPPADGALKRAEELKTQANDYFKAKDYENAIKFYSQAIELNPSNAIYYGNRSLAYLRTECYGYALGDATRAIELDKKYIKGYYRRAASNMALGKFRAALRDYETVVKVKPHDKDAKMKYQECNKIVKQKAFERAIAGDEHKRSVVDSLDIESMTIEDEYSGPKLEDGKVTISFMKELMQWYKDQKKLHRKCAYQILVQVKEVLSKLSTLVETTLKETEKITVCGDTHGQFYDLLNIFELNGLPSETNPYIFNGDFVDRGSFSVEVILTLFGFKLLYPDHFHLLRGNHETDNMNQIYGFEGEVKAKYTAQMYELFSEVFEWLPLAQCINGKVLIMHGGLFSEDGVTLDDIRKIERNRQPPDSGPMCDLLWSDPQPQNGRSISKRGVSCQFGPDVTKAFLEENNLDYIIRSHEVKAEGYEVAHGGRCVTVFSAPNYCDQMGNKASYIHLQGSDLRPQFHQFTAVPHPNVKPMAYANTLLQLGMM
# Variants of: B1
# Conditions: with hs90b_human HSP90AB1, P08238
# Sequence of hs90b_human HSP90AB1, P08238 (P08238 whole entry): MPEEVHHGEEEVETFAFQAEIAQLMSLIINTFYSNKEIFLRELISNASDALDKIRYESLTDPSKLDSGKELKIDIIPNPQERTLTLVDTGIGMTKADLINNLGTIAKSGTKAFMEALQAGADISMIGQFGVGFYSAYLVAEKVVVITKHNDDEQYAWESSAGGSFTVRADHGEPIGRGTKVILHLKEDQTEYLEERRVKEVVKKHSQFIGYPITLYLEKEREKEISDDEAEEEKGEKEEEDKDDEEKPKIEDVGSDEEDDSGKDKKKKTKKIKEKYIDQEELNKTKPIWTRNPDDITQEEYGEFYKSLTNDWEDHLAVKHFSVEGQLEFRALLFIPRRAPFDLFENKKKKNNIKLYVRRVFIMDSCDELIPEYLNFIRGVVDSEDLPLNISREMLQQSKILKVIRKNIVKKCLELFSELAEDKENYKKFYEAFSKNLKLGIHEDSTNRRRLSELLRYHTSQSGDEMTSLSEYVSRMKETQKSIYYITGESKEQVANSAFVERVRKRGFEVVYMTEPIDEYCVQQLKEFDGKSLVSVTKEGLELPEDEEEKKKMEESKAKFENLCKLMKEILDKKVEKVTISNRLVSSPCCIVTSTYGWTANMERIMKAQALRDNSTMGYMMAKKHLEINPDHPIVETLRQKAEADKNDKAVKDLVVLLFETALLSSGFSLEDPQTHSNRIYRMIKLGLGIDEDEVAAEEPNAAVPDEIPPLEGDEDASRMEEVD
row,Variant,effect of a mutation on the interaction
1,MAMAEGERTECAEPPRDEPPADGALKRAEELKTQANDYFKAKDYENAIKFYSQAIELNPSNAIYYGNRSLAYLRTECYGYALNDATRAIELDKKYIKGYYRRAASNMALGKFRAALRDYETVVKVKPHDKDAKMKYQECNKIVKQKAFERAIAGDEHKRSVVDSLDIESMTIEDEYSGPKLEDGKVTISFMKELMQWYKDQKKLHRKCAYQILVQVKEVLSKLSTLVETTLKETEKITVCGDTHGQFYDLLNIFELNGLPSETNPYIFNGDFVDRGSFSVEVILTLFGFKLLYPDHFHLLRGNHETDNMNQIYGFEGEVKAKYTAQMYELFSEVFEWLPLAQCINGKVLIMHGGLFSEDGVTLDDIRKIERNRQPPDSGPMCDLLWSDPQPQNGRSISKRGVSCQFGPDVTKAFLEENNLDYIIRSHEVKAEGYEVAHGGRCVTVFSAPNYCDQMGNKASYIHLQGSDLRPQFHQFTAVPHPNVKPMAYANTLLQLGMM [G83N],increasing interaction
